Biological target: un13d_human UNC13D (UniProt Q70J99)
Sequence (Q70J99 whole entry): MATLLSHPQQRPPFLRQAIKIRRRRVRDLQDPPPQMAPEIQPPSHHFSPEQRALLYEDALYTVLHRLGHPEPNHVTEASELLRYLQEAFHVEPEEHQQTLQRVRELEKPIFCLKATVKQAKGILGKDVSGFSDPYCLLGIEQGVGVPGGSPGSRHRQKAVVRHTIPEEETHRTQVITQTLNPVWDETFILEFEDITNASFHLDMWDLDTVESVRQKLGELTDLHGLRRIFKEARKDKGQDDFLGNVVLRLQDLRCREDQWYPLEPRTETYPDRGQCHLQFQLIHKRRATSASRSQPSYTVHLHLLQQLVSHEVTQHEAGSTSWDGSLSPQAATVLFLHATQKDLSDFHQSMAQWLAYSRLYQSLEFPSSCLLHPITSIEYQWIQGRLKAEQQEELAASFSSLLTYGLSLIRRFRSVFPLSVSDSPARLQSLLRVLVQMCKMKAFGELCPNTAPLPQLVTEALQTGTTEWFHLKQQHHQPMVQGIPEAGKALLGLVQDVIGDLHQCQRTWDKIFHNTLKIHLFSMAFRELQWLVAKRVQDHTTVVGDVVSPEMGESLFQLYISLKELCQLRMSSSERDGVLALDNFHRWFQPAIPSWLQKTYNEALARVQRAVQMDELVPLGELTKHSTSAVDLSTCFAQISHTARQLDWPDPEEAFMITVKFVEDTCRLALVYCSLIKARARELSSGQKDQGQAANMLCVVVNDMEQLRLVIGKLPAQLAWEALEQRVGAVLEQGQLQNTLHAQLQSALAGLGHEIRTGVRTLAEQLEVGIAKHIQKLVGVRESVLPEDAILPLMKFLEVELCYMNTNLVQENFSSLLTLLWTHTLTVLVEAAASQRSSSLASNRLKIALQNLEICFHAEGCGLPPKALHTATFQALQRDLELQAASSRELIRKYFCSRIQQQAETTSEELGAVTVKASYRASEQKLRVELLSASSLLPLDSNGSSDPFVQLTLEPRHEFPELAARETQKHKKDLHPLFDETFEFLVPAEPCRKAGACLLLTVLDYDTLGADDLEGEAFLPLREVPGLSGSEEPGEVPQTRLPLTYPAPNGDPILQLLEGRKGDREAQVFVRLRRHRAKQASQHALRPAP

Rho-related GTP-binding protein RhoG (Homo sapiens), P84095 Q61L, sequence (P84095 whole entry Q61L): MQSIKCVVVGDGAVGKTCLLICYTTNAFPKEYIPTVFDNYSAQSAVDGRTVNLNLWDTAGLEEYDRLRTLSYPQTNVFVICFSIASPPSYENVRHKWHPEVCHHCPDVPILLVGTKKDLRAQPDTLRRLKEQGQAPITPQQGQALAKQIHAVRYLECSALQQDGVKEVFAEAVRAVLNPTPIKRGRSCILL

Substance: Rho-related GTP-binding protein RhoG (Homo sapiens), P84095 Q61L
- effect of a mutation on the interaction: with no effect

— IntAct's records for PubMed 33513601
